Laboratory results: article PMC8237399

How the values were obtained:
[1] = biological target: filamin C (FLNc) Ig-like domains 23–24, wild type (human); test: cross-linking
[2] = biological target: filamin C (FLNc) Ig-like domains 23–24, wild type (human); test: SEC-MALS
[3] = biological target: filamin C (FLNc) Ig-like domains 23–24, wild type (human); test: cross-linking; remark: listed apart in the source

- stoichiometry N [1]: 2
- stoichiometry N [2]: 2
- stoichiometry N [3]: 2
Substance: filamin C (FLNc) Ig-like domains 23–24, wild type (domain or fragment)
